Reference: publication PMC10869706, “Chp1 is a dedicated chaperone at the ribosome that safeguards eEF1A biogenesis” (Nature Communications, 2024)
Where a chain is given by its changes, count along the chain named.

Tests used:
V5-eEF1A M102V = biological target: T1, V5-eEF1A M102V (yeast (S. cerevisiae), UniProt P02994 1-458, M102V); assay: co-IP; co-IP of V5-eEF1A variants with Chp1 from yeast lysate (GFP-Trap/V5-Trap; 20 mM Tris pH 7.4, 150 mM NaCl, 2 mM MgCl2, 2 mM EDTA, 5% glycerol, 0.25% NP-40), 2 h at 4 °C, immunoblot, quantified; conditions: partners not purified
T1 construct: eEF1A (Tef2), yeast, with a change that represents a human EEF1A2 polymorphism; source: expressed in yeast cells, in lysate; not shown: V5, N-terminal, kept
T1 sequence (looked up): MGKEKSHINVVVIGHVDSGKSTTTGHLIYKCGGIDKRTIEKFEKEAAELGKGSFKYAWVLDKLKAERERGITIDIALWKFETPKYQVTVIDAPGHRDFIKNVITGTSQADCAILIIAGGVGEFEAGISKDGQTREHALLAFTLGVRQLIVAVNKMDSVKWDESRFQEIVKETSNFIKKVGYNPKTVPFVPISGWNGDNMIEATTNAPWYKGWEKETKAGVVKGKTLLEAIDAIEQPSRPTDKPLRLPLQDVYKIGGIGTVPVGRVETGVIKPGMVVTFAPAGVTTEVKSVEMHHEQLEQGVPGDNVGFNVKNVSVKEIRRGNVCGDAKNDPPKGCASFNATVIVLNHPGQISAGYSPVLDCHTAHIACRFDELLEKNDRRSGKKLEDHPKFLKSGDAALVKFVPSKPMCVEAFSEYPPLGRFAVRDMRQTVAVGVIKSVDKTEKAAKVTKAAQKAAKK

V5-eEF1A F98C = biological target: T2, V5-eEF1A F98C (yeast (S. cerevisiae), UniProt P02994 1-458, F98C); assay: as above; conditions: partners not purified
T2 construct: eEF1A (Tef2), yeast, with a change that represents a human EEF1A2 polymorphism; source: expressed in yeast cells, in lysate; not shown: V5, N-terminal, kept
T2 sequence (looked up): T1 sequence (looked up) with F98C, V102M

B1: Chp1 (in yeast cells expressing V5-eEF1A) (natural protein, yeast (S. cerevisiae), UniProt Q08971 1-146, looked up)
chain: MSTFNAETADNLEDIEKQFAVVAVEQAETYWKLLTSVPGSKLRLTKFDDEIYENFMERFPEYKDVERVKKFTEEELKTKEAKERWRKFFTIFEKKIEDYNFGTLLRTDASAEYGQFTTCFVVRLQFYAFEIARNKHGLNDWIVGQK
notes: Chp1 (ORF YPL225w), yeast; source: yeast cells, in lysate
V5-eEF1A M102V
  fold increase in Chp1 binding (against WT eEF1A): 3 fold
V5-eEF1A F98C
  fold increase in Chp1 binding (against WT eEF1A): 3 fold
